Laboratory results published in the supplement of paper PMC7877785.
± gives the uncertainty stated by the source.

Experiment: self-splicing fitness, log relative to wild type (ln ratio); higher = more splicing; Tetrahymena group I intron in knt gene, E. coli kanamycin selection, DiMSum; sequences stand for … in CUCUCU…GGAGGGAAAAGUUAUCAGGCAUGCACCUGGUAGCUAGUCUUUAAACCAAUAGAUUGCAUCGGUUUAAAAGGCAAGACCGUCAAAUUGCGGGAAAGGGGUCAACAGCCGUUCAGUACCAAGUCUCAGGGGAAACUUUGAGAUGGCCUUGCAAAGGGUAUGGUAAUAAGCUGACGGACAUGGUCCUAACCACGCAGCCAAGUCCUAAGUCAACAGAUCUUCUGUUGAUAUGGAUGCAGUUCACAGACUAAAUGUCGGUCGGGGAAGAUGUAUUCUUCUCAUAAGAUAUAGUCGGACCUCUCCUUAAUGGGAGCUAGCGGAUGAAGUGAUGCAACACUGGAGCCGCUGGGAACUAAUUUGUAUGCGAAAGUAUAUUGAUUAGUUUUGGAGUACUCGUGGUCG
Summary of the method: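 DiMSum derived fitness as the error-weighted combination of fold changes across replicates, kanamycin versus no kanamycin, normalised to wild type. E. coli BL21(DE3) held the library, which randomised all eight P1ex-region intron nucleotides within the knt kanamycin-resistance gene on pET-22b(+). Six replicate transformations grew overnight at 37°C or 30°C on LB agar with or without 25 μg/mL kanamycin, also containing 100 μg/mL carbenicillin, 50 μM IPTG and 0.2% rhamnose, and pooled colonies were amplicon-sequenced on an Illumina HiSeq 2500.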

Sequence | self-splicing fitness (ln) (30 °C) | self-splicing fitness (ln) (37 °C)
GUAAAGCAAUAUUACGCUGG | -0.164 ± 0.086 | -0.981 ± 0.14
GGUCAGCAAUAUUACGGAUG | -0.625 ± 0.095 | -0.309 ± 0.097
CGCGAGCAAUAUUACGGGGU | -4.28 ± 0.23 | -2.95 ± 0.22
GGUUAGCAAUAUUACGUGGU | -2.69 ± 0.18 | -0.78 ± 0.17
GAUCAGCAAUAUUACGAACU | -0.585 ± 0.056 | 0.06 ± 0.073
AGCGAGCAAUAUUACGGGUU | -2.83 ± 0.2 | -1.09 ± 0.15
CGGUAGCAAUAUUACGUCGC | -3.35 ± 0.27 | -2.14 ± 0.22
UAGUAGCAAUAUUACGGUAG | -2.56 ± 0.18 | -1.73 ± 0.22
UGAUAGCAAUAUUACGGCUU | -1.2 ± 0.19 | 0.584 ± 0.17
AACGAGCAAUAUUACGUGGU | -4.57 ± 0.27 | -2.94 ± 0.17
CCAAAGCAAUAUUACGGCCG | -0.467 ± 0.1 | -0.508 ± 0.12
CGCGAGCAAUAUUACGGGUC | -3.27 ± 0.2 | -2.38 ± 0.31
UCGGAGCAAUAUUACGUACG | -1.21 ± 0.14 | -0.867 ± 0.18
AUGAAGCAAUAUUACGAGAA | -3.53 ± 0.27 | -1.07 ± 0.16
GAGCAGCAAUAUUACGCCCA | -0.299 ± 0.18 | 0.255 ± 0.26
CAGAAGCAAUAUUACGCGAA | – | -1.94 ± 0.23
GUCUAGCAAUAUUACGUCGC | -0.459 ± 0.2 | 0.215 ± 0.19
CUCAAGCAAUAUUACGAGAC | -3.27 ± 0.21 | -2.35 ± 0.23
CAUCAGCAAUAUUACGAGGC | -3.77 ± 0.2 | -2.64 ± 0.21
CCGAAGCAAUAUUACGCUUG | -3.79 ± 0.33 | -2.26 ± 0.22
GCAGAGCAAUAUUACGUGAA | -3.15 ± 0.14 | -1.59 ± 0.19
UCGCAGCAAUAUUACGUCAA | -2.69 ± 0.15 | -0.094 ± 0.11
AGGCAGCAAUAUUACGGAGA | -2.91 ± 0.14 | -2.61 ± 0.17
ACGCAGCAAUAUUACGGCUU | -0.345 ± 0.046 | -0.227 ± 0.057
CGCUAGCAAUAUUACGUUUC | -2.78 ± 0.17 | -2.23 ± 0.22

Sequence | self-splicing fitness (ln) (30 °C) | self-splicing fitness (ln) (37 °C)
AAAAAGCAAUAUUACGAUAC | -2.28 ± 0.16 | -0.696 ± 0.13
GCCGAGCAAUAUUACGGGCU | -3.27 ± 0.23 | -2.43 ± 0.27
CUACAGCAAUAUUACGAUCA | -1.82 ± 0.17 | -1.49 ± 0.2
UAUGAGCAAUAUUACGCGAC | -2.82 ± 0.44 | -0.954 ± 0.39
UAAGAGCAAUAUUACGAAGU | -3.61 ± 0.31 | -1.85 ± 0.41
AGGAAGCAAUAUUACGGAAU | -2.88 ± 0.22 | -2.14 ± 0.3
AUAAAGCAAUAUUACGCGAU | -2.45 ± 0.15 | -1.36 ± 0.16
CGAAAGCAAUAUUACGUGUC | -3.94 ± 0.34 | -2.71 ± 0.22
UAUUAGCAAUAUUACGGACU | -2.33 ± 0.31 | -1.47 ± 0.4
ACCGAGCAAUAUUACGUCUC | -3.22 ± 0.32 | -2.77 ± 0.48
CGGUAGCAAUAUUACGUUCU | -0.482 ± 0.087 | -0.439 ± 0.1
AGGCAGCAAUAUUACGAACU | 0.174 ± 0.095 | 0.719 ± 0.12
GAAUAGCAAUAUUACGAUCC | -1.16 ± 0.14 | -0.622 ± 0.15
AAAAAGCAAUAUUACGCGUA | -1.61 ± 0.083 | -0.153 ± 0.08
AGAGAGCAAUAUUACGGUUA | -3.1 ± 0.25 | -1.83 ± 0.21
CAGUAGCAAUAUUACGCUCA | -0.118 ± 0.13 | 0.5 ± 0.17
CACUAGCAAUAUUACGCGGG | -2.48 ± 0.13 | -2.01 ± 0.15
GAGAAGCAAUAUUACGUCAC | -3.6 ± 0.29 | -0.67 ± 0.24
UCCUAGCAAUAUUACGAACU | -2.54 ± 0.19 | -1.6 ± 0.23
CUUUAGCAAUAUUACGUUUA | -3.03 ± 0.24 | -1.64 ± 0.17
GUUAAGCAAUAUUACGGGAG | -3.17 ± 0.14 | -1.63 ± 0.097
GCCUAGCAAUAUUACGUAGU | -0.126 ± 0.068 | 0.357 ± 0.088
CACUAGCAAUAUUACGAAUG | -1.7 ± 0.075 | -1.01 ± 0.086
CUCGAGCAAUAUUACGUUGG | -3.48 ± 0.18 | -3.17 ± 0.14
CGUUAGCAAUAUUACGGGGC | -2.57 ± 0.15 | -3.12 ± 0.28

Sequence | self-splicing fitness (ln) (30 °C) | self-splicing fitness (ln) (37 °C)
AUAAAGCAAUAUUACGCCCC | -0.123 ± 0.16 | 0.0897 ± 0.24
UGGGAGCAAUAUUACGUAGU | – | -1.82 ± 0.28
GGCCAGCAAUAUUACGCGCG | -0.959 ± 0.089 | -0.284 ± 0.12
GAUUAGCAAUAUUACGCCGG | -2.88 ± 0.45 | -1.96 ± 0.41
CUUUAGCAAUAUUACGUAGA | -2.52 ± 0.22 | -2.53 ± 0.33
UAAUAGCAAUAUUACGAUAG | -2.06 ± 0.27 | -2.99 ± 0.38
AGGAAGCAAUAUUACGGCCG | -0.634 ± 0.12 | -0.462 ± 0.19
UGAGAGCAAUAUUACGGUGC | -2.02 ± 0.21 | –
GCCUAGCAAUAUUACGUAUU | -1.83 ± 0.098 | -1.73 ± 0.14
GGAAAGCAAUAUUACGUCUG | -0.579 ± 0.054 | 0.2 ± 0.07
AUAUAGCAAUAUUACGAGGG | -2.57 ± 0.43 | –
CACUAGCAAUAUUACGCCGA | -2.8 ± 0.21 | -1.49 ± 0.17
AGUCAGCAAUAUUACGACAA | -0.509 ± 0.098 | 0.177 ± 0.13
AUUCAGCAAUAUUACGUAUG | -2.34 ± 0.13 | -0.383 ± 0.12
GGAAAGCAAUAUUACGACGC | -0.197 ± 0.1 | 0.595 ± 0.16
UCUAAGCAAUAUUACGAAUU | -3.75 ± 0.31 | -2.66 ± 0.25
UGACAGCAAUAUUACGUCAG | -2.12 ± 0.096 | -1.75 ± 0.11
CACCAGCAAUAUUACGGCAG | -0.179 ± 0.045 | -0.218 ± 0.063
GCGAAGCAAUAUUACGGAAG | -2.62 ± 0.18 | -1.93 ± 0.16
GCUAAGCAAUAUUACGGUUU | -0.872 ± 0.069 | -0.522 ± 0.095
CUAGAGCAAUAUUACGCAUU | -3.2 ± 0.18 | -2.2 ± 0.25
GUUCAGCAAUAUUACGAGGA | -3.54 ± 0.27 | -2.18 ± 0.26
GCGGAGCAAUAUUACGACUU | -0.726 ± 0.15 | -1.48 ± 0.29
GAGUAGCAAUAUUACGGCGU | -0.448 ± 0.17 | 0.221 ± 0.18
CGCUAGCAAUAUUACGUACG | -1.66 ± 0.13 | -1.07 ± 0.13

Sequence | self-splicing fitness (ln) (30 °C) | self-splicing fitness (ln) (37 °C)
GGACAGCAAUAUUACGAGAU | -3.03 ± 0.14 | -1.45 ± 0.13
GAAUAGCAAUAUUACGCCGA | -1.62 ± 0.31 | 0.319 ± 0.22
GAGUAGCAAUAUUACGCACU | -3.18 ± 0.19 | -1.34 ± 0.36
GUCUAGCAAUAUUACGGUGA | -2.81 ± 0.25 | -0.385 ± 0.21
AGAAAGCAAUAUUACGUAAC | -3.26 ± 0.22 | -2.47 ± 0.33
CUGCAGCAAUAUUACGGGUU | -3.86 ± 0.17 | -2.74 ± 0.14
UUUGAGCAAUAUUACGGCUG | -0.955 ± 0.11 | -0.634 ± 0.17
CGCGAGCAAUAUUACGAAAA | -1.55 ± 0.43 | -3.06 ± 0.4
AUCGAGCAAUAUUACGAUCG | -2.9 ± 0.22 | -3.06 ± 0.34
AGACAGCAAUAUUACGAGUU | -2.26 ± 0.086 | -1.14 ± 0.099
UGUUAGCAAUAUUACGCGGG | -2.74 ± 0.29 | -1.57 ± 0.26
GUGGAGCAAUAUUACGCUAG | -3.24 ± 0.19 | -2.36 ± 0.2
GGUAAGCAAUAUUACGACUG | -0.569 ± 0.12 | -0.0619 ± 0.14
AAAUAGCAAUAUUACGCAAC | -3.16 ± 0.37 | -1.53 ± 0.26
GGACAGCAAUAUUACGGUCG | -1.1 ± 0.092 | -0.39 ± 0.14
CACAAGCAAUAUUACGACGA | -0.927 ± 0.11 | -0.995 ± 0.12
CUAUAGCAAUAUUACGGGAC | -2.51 ± 0.3 | –
AUGAAGCAAUAUUACGGCUC | -0.602 ± 0.12 | 0.254 ± 0.13
AUGAAGCAAUAUUACGCGAG | -0.689 ± 0.09 | -0.225 ± 0.099
UGCUAGCAAUAUUACGAUUC | – | -2.33 ± 0.49
GUUUAGCAAUAUUACGCACG | -2.48 ± 0.44 | –
GACGAGCAAUAUUACGGCCG | -2.02 ± 0.25 | -0.723 ± 0.37
